Assay [1] deals with Mesoplasma florum ribonucleotide reductase protein R2 (MfR2), inactive form with unmodified Tyr126 (Mesoplasma florum). Put plainly: crystal structure.
Assay [2] has as its target Mesoplasma florum ribonucleotide reductase protein R2 (MfR2), active form with meta-hydroxylated Tyr126 (DOPA) (Mesoplasma florum). Put plainly: crystal structure.

Drawing on publication doi:10.1101/348268, this text covers stoichiometry N for two substances.

One may read the stoichiometry N as the number of molecules, sites or subunits per partner or assembly.

For “Mesoplasma florum ribonucleotide reductase protein R2 (MfR2), inactive form with unmodified Tyr126 (enzyme)”, the stoichiometry N in assay [1] amounted to 2.

In assay [2], “Mesoplasma florum ribonucleotide reductase protein R2 (MfR2), active form with meta-hydroxylated Tyr126 (DOPA) (enzyme)” yielded a stoichiometry N of 2.
